The source of these data is article PMC3372094.

For this assay, the target named is calmodulin-binding domain of the original SK2 channel, SK2-a (UniProt P70604). The experiment in a line: ITC. On the technique in general: In ITC the heat of successive injections is recorded.
Sequence of UniProt P70604 (P70604 396-487): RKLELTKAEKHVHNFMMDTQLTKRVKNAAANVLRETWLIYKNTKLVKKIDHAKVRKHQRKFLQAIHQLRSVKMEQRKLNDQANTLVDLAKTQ

The substance “calmodulin (rat) (from UniProt P0DP29 1-149) (natural protein; other documents disagree on this pair)” returned a dH of the first site (rising phase, two-site fit) of -34.7 kcal/mol.
